# Legend:
# [1] = target: canine beta-NGF (cNGF) (canine); test: SPR (Biacore), cNGF binding; KD column of Table 7
# NGF (species not stated) = test: cell-based or functional assay
# rat NGF (rat) = rat NGF (rat) (UniProt P25427); test: cell-based or functional assay
# [2] = target: canine beta-NGF (cNGF) (canine); test: SPR (Biacore), cNGF binding
# canine beta-NGF (cNGF) (canine), sequence (Q29074 110-229 N171T limits assumed): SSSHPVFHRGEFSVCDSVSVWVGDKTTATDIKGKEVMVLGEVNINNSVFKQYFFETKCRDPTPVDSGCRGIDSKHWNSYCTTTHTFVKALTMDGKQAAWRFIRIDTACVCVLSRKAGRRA
# rat NGF (rat), sequence (P25427 122-241 limits assumed): as the sequence (Q29074 110-229 N171T limits assumed) above, with S3T, R9M, M37T, D60A, T62N, D65E, M92T, G94D, G117A, A120G counted along it
binder,measurement,setting,value
"ZTS-182m6 (antibody, V domains shown) VH: EVQLVESGGDLARPGGSLKLSCVVSGFTLTQYGINWVRQAPGKGLQWVTVIWATGATDYNSALKSRFTVSRDNAMNTVYLQMNSLRVEDTAVYYCARDGWWYATSWYFDVWGQGTLVTVSS VL: DIVMTQTPLSLSVSPGEPASISCKASQDINHYLNWFRQKPDGTVKLLIYYTTRLQAGVPSRFSGSGSGTDFTLRISRVEADDAGVYYCQQGDHFPRTFGQGT",Kd,[1],0.00434 nM
same,"IC50 nM (TF-1 proliferation inhibition, NGF 2.0 ng/ml)",NGF (species not stated),0.087 nM
same,"IC50 µg/ml (TF-1 proliferation inhibition, NGF 2.0 ng/ml)",NGF (species not stated),0.0131 µg/mL
same,"IC50 nM (inhibition of neurite outgrowth, PC12 cells, rat NGF 10 ng/ml; Repeat 1)",rat NGF (rat),0.26 nM
same,"IC50 nM (inhibition of neurite outgrowth, PC12 cells, rat NGF 10 ng/ml; Repeat 2)",rat NGF (rat),0.24 nM
same,"IC50 µg/ml (inhibition of neurite outgrowth, PC12 cells, rat NGF 10 ng/ml; Repeat 1)",rat NGF (rat),0.039 µg/mL
same,"IC50 µg/ml (inhibition of neurite outgrowth, PC12 cells, rat NGF 10 ng/ml; Repeat 2)",rat NGF (rat),0.035 µg/mL
same,Kd,[2],0.00434 nM
same,koff,[2],1.54e-08 s⁻¹
same,kon,[2],3560 M⁻¹ s⁻¹

# Source: patent US20220106391A1
